This is an account of results in US20220195052A1 (Biogen, published 2022).

Numbering of substitutions follows the chain as printed.

The chains are these.
B1: Exemplary Antibody 18 (antibody, V domains shown)
VH: QVQLVQSGAEVKKPGASVKVSCKASGYTFRSFYMHWVRQAPGQGLEWMGVINPSLGSTGYAQKFQGRVTMTRDTSTSTVYMELSSLRSEDTAVYYCARETNYYRGGPAFDIWGQGTMVTVSS
VL: not shown
notes: expressed in yeast (Adimab platform) and purified on protein A; also called Ex. Ab 18
B2: Exemplary Antibody 4 (antibody, V domains shown)
VH: QVQLVESGGGLVQPGGSLRLSCAASGFTFTSYYMHWVRQAPGQGLEWMGIINPSGGSTSYAQKFQGRVTMTRDTSTSTVYMELSSLRSEDTAVYYCARQQRHRRDYDYYYGMDVWGQGTTVTVSS
VL: EIVLTQSPGTLSLSPGERATLSCRASQSVSSDYLAWYQQKPGQAPRLLIYGASRRATGIPDRFSGSGSGTDFTLTISRLEPEDFAVYYCQQAYSLPPTFGGGTKVEIK
notes: expressed in yeast (Adimab platform) and purified on protein A; also called Ex. Ab 4
B3: Exemplary Antibody 19 (antibody, V domains shown)
VH: QVQLVESGGGVVQPGRSLRLSCAASGFTFSSYGMHWVRQAPGKGLEWVAVISYDGSNKYYADSVKGRFTISRDNSKNTLYLQMNSLRAEDTAVYYCARGGPTRGDGTRVYYYGMDVWGQGTTVTVSS
VL: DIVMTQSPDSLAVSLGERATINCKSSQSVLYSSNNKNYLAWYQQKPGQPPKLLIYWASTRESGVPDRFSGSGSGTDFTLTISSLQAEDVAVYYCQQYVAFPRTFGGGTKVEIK
notes: expressed in yeast (Adimab platform) and purified on protein A; also called Ex. Ab 19
B4: Exemplary Antibody 14 (antibody, V domains shown)
VH: QVQLVESGGGLVKPGGSLRLSCAASGFTFSDYYMSWIRQAPGKGLEWVSYISSSGSTIYYADSVKGRFTISRDNAKNSLYLQMNSLRAEDTAVYYCARERGNRGDTPRYYYMDVWGKGTTVTVSS
VL: DIQMTQSPSSLSASVGDRVTITCRASQSISRYLNWYQQKPGKAPKLLIYAASSLQSGVPSRFSGSGSGTDFTLTISSLQPEDFATYYCQQSLVTPFTFGGGTKVEIK
notes: expressed in yeast (Adimab platform) and purified on protein A; also called Ex. Ab 14
B5: Exemplary Antibody 6 (antibody, V domains shown)
VH: QVQLVESGGGLVKPGGSLRLSCAASGFTFSDYYMSWIRQAPGKGLEWVSYISSSGSTIYYADSVKGRFTISRDNAKNSLYLQMNSLRAEDTAVYYCARGGRNRGDSSLSGIDVWGQGTTVTVSS
VL: DIQMTQSPSSLSASVGDRVTITCRASQSINSYLNWYQQKPGKAPKLLIYAASSLQSGVPSRFSGSGSGTDFTLTISSLQPEDFATYYCQQQYSDITFGGGTKVEIK
notes: expressed in yeast (Adimab platform) and purified on protein A; also called Ex. Ab 6
B6: Exemplary Antibody 20 (antibody, V domains shown)
VH: B5 VH with R101P, N102S, S106A, S107L, L108A, S109E, G110Y, I111F, D112Q, V113H
VL: EIVLTQSPATLSLSPGERATLSCRASQSVSRYLAWYQQKPGQAPRLLIYDASNRATGIPARFSGSGSGTDFTLTISSLEPEDFAVYYCQQLSLHPPYTFGGGTKVEIK
notes: expressed in yeast (Adimab platform) and purified on protein A; also called Ex. Ab 20
B7: Exemplary Antibody 13 (antibody, V domains shown)
VH: B5 VH with R101P, N102S, S106A, S107L, L108A, S109E, G110Y, I111F, D112Q, V113H
VL: EIVMTQSPATLSVSPGERATLSCRASQSVSSNLAWYQQKPGQAPRLLIYGASTRATGIPARFSGSGSGTEFTLTISSLQSEDFAVYYCQQLTNHPPIAFGGGTKVEIK
notes: expressed in yeast (Adimab platform) and purified on protein A; also called Ex. Ab 13
B8: Exemplary Antibody 7 (antibody, V domains shown)
VH: B5 VH with R101P, N102S, S106A, S107L, L108A, S109E, G110Y, I111F, D112Q, V113H
VL: B7 VL with T92V, H94Y, A98T
notes: expressed in yeast (Adimab platform) and purified on protein A; also called Ex. Ab 7
B9: Exemplary Antibody 17 (antibody, V domains shown)
VH: EVQLVQSGAEVKKPGESLKISCKGSGYSFTSYWIGWVRQMPGKGLEWMGIIYPGDSDTRYSPSFQGQVTISADKSISTAYLQWSSLKASDTAMYYCARGPRSRGDGPSNYYYMDVWGQGTLVTVSS
VL: DIQMTQSPSTLSASVGDRVTITCRASQSISSWLAWYQQKPGKAPKLLIYKASSLESGVPSRFSGSGSGTEFTLTISSLQPDDFATYYCQQYRPLPPTFGGGTKVEIK
notes: expressed in yeast (Adimab platform) and purified on protein A; also called Ex. Ab 17
B10: Exemplary Antibody 5 (antibody, V domains shown)
VH: B3 VH with Q1E, S30K, S31Y, V50S, S52W, Y59K
VL: EIVMTQSPATLSVSPGERATLSCRASQSVSSNLAWYQQKPGQAPRLLIYSASTRATGIPARFSGSGSGTEFTLTISSLQSEDFAVYYCQQYYHHPFTFGGGTKVEIK
notes: expressed in yeast (Adimab platform) and purified on protein A; also called Ex. Ab 5

T2 sequence (P06756 31-1048 limits assumed, chain 1 of 2): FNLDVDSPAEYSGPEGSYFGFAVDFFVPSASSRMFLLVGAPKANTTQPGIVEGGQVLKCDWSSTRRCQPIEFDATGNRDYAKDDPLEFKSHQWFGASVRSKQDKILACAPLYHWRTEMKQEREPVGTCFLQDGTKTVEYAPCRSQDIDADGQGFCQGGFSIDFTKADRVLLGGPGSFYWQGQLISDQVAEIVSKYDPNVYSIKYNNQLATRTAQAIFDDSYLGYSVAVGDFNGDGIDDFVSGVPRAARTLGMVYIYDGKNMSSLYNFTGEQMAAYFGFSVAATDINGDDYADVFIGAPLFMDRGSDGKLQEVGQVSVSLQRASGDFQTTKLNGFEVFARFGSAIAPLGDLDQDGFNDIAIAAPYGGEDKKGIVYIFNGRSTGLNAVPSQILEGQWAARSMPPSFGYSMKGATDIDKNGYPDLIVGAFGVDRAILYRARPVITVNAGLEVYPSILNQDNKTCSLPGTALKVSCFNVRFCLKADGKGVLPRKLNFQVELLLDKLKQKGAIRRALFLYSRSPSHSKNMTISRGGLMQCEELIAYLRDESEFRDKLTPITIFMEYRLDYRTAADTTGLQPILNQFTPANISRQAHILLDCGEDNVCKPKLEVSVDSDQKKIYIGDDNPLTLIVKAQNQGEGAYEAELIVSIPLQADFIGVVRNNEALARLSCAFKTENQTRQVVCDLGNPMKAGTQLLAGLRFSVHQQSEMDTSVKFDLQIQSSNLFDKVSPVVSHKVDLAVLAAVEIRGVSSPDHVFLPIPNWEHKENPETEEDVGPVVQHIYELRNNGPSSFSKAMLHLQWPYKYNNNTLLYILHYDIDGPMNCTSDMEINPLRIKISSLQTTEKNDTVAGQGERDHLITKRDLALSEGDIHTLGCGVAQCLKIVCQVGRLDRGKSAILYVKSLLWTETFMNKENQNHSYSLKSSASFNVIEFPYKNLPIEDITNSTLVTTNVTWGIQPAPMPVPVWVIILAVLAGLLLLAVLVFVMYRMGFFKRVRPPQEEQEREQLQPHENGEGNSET
T2 sequence (P05556 21-798 limits assumed, chain 2 of 2): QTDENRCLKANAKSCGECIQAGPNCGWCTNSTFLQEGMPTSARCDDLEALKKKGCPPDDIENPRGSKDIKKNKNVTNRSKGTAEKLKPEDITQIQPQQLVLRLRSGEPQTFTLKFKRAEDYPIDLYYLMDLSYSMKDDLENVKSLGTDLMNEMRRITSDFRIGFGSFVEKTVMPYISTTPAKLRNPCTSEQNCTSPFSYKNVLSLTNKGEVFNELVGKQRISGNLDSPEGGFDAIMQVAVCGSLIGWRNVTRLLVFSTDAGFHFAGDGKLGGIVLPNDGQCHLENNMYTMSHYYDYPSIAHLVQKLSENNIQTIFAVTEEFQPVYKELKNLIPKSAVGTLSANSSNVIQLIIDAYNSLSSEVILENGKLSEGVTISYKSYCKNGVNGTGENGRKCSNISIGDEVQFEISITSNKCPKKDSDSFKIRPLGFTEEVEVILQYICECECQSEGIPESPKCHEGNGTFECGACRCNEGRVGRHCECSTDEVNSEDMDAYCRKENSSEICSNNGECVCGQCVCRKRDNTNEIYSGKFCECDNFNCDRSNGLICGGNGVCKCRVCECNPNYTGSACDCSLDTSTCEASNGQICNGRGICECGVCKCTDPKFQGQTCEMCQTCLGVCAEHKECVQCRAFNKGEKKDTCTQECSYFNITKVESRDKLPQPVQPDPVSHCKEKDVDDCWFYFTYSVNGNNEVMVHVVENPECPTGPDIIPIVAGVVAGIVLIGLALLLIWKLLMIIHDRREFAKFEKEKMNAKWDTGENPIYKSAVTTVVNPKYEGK

One assay deals with T1, αvβ5 integrin on stably transfected cells (human, UniProt P18084 24-799).
T1 construct: whole, on cells
The assay is described as follows: flow cytometry on stably transfected cells, antibody titration (bivalent EC50). As to the method: (§1) Cells were washed in the appropriate assay buffer three times by pelleting at 1500 RPM for 3 minutes and then pouring out supernatant. Assay buffer for this experiment was TBS containing 1 mg/mL BSA and supplemented with either 1 mM Ca+1 mM Mg or with 1 mM Mn. Cells were then resuspended in assay buffer at a concentration of 1.0-1.5×10⁶ cells/mL and transferred to wells of a 96-well assay plate (Corning 3799) in 50 μL aliquots. Plates were then centrifuged at 2000 RPM for 3 minutes to pellet cells and supernatant was flicked out. Cells were resuspended in 100 μL of antibody sample and incubated on ice for 45 to 60 minutes.
(§2) Plates were washed three times in 150 μL assay buffer by pelleting at 2000 RPM for 3 minutes and then flicking out the supernatant. Cells were then resuspended in 50 μL of phycoerythrin-conjugated goat anti-human Fab secondary reagent and incubated on ice in the dark for 30 minutes. Plates were washed three times in 150 μL assay buffer by pelleting at 2000 RPM for 3 minutes and then flicking out the supernatant. Cells were then resuspended in 200 μL of assay buffer+1% polyformaldehyde (PFA) for 30 minutes on ice to fix the cells. Cells were pelleted to remove the PFA and then resuspended in 150 μL assay buffer.
For orientation: Flow cytometry measures light scatter and fluorescence of single cells or particles in a stream.
Regarding B1, the EC50 was 11 nM.

The next assay addresses T2, human αvβ1 integrin on cells (human, UniProt P06756 31-1048; P05556 21-798).
T2 construct: also called stably transfected human αvβ1 cells; αvβ1 on MRC9 human lung fibroblasts
The assay is described as above. As to the method: as §1, §2
B2: the response was half-maximal at 4.9 nM (EC50).
On the same count and under the same terms, for B3 the value was 2.8 nM.
The same measure, in the same setting: under B1 stands 2 nM; under B4, 0.8 nM.
Regarding B5, the EC50 worked out at 0.8 nM.
Consider B6, for which the EC50 turned out to be 0.4 nM.
Same read-out and setting: under B7 stands 0.6 nM.
Still for that read-out and setting: under B8 stands 1.2 nM; under B9, 1.4 nM.

In another assay the target is T3, αvβ8 integrin on stably transfected cells (human, UniProt P26012 43-769).
T3 construct: whole, on cells
T3 sequence (chain, as listed by the source, chain 1 of 2): as the sequence (P06756 31-1048 limits assumed, chain 1 of 2) above
T3 sequence (P26012 43-769, chain 2 of 2): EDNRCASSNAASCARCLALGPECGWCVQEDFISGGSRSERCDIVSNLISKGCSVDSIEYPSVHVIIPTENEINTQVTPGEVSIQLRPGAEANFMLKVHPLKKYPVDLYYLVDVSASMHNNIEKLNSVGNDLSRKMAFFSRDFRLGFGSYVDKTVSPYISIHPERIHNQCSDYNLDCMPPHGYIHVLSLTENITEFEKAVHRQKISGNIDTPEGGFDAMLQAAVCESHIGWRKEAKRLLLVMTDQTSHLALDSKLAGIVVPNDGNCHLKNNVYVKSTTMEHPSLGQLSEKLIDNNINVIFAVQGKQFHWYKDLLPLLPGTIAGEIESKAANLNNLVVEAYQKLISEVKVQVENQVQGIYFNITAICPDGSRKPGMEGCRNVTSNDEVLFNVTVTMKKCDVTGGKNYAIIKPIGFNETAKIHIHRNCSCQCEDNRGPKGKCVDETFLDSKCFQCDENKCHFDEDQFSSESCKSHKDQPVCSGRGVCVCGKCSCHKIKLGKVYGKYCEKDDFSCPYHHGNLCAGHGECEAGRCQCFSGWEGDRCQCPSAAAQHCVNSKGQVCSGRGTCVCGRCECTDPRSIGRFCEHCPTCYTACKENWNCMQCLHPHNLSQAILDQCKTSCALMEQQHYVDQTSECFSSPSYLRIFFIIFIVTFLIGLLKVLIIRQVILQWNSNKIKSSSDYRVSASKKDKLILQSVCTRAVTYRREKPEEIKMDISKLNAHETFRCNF
Described as above. How it is done: as §1, §2
B3 displayed an EC50 of 2.8 nM.
As to B1, the EC50 came out at 10 nM.

Another assay has as its target T4, αvβ3 integrin on stably transfected cells (human, UniProt P05106 27-788).
T4 construct: whole, on cells
Described as above. As to the method:
as §1, §2
In turn, B1 gave an EC50 of 13 nM.
The same measure, in the same setting: under B9 stands 3.3 nM.

Another assay addresses αvβ6 integrin on stably transfected cells (human, UniProt P06756 31-1048; P18564 22-788). The description is as above. As to the method: as §1, §2
B1 yielded an EC50 of 16 nM.

The target in the next assay is T2, human αvβ1 integrin on cells. The assay can be described thus: inhibition of adhesion of BCECF-labelled αvβ1-transfected cells to plate-coated LAP. As to the method: (§3) The plate was washed twice with PBS (200 μl/well), blocked with 1% BSA in PBS (200 μl/well) for 1 h at room temperature, and washed thrice with 200 μl/well of assay buffer (TBS, 2 mM Glucose, 0.1% BSA, 1 mM CaCl₂) and 1 mM MgCl₂, pH 7.4). Stably transfected human αvβ1 cells were removed from cell suspension and centrifuged at 1100 rpm for 5 mins. The pellet was resuspended in RPMI 1640, 1% BSA buffer and incubated with 2 μM fluorescent dye (BCECF, Molecular Probes, Eugene, Oreg.) in a 37° C. incubator for 30 min. The labeled cells were washed twice by centrifugation at 1100 rpm for 5 min and resuspended in assay buffer to 0.8×10⁶ cells/ml. To individual wells of the washed plate were added 50 μl of purified antibody and 50 μl of human αvβ1 cells labeled with BCECF, and the plate was incubated at room temperature in dark for 1 h. The plate was washed 3-4 times with assay buffer (200 μl/well), and the fluorescence due to adhered cells on the plate was recorded at 485 nm (Excitation) and 538 nm (Emission) wavelength. Percent binding was determined by comparing the fluorescence prior to the final wash step (i.e. total cells added) to that after washing (i.e. bound cells).
B2 gave an IC50 of 2.8 nM.
Consider B3, for which the IC50 came out at 1.4 nM.
Still for that read-out and setting: for B4 the value was 2.2 nM; for B5, 9 nM.
The same measure, in the same setting: under B6 stands 1 nM; under B7, 1.3 nM; under B8, 4.3 nM.
Still for that read-out and setting: under B9 stands < 1 nM.

The target in another assay is T5, mouse αvβ1 integrin on BLO-11 mouse skeletal muscle fibroblasts (mouse, UniProt P43406 31-1044; P09055 21-798).
T5 construct: whole, on cells; the cells carry other integrins as well; also called BLO-11 (murine fibroblast cells)
T5 sequence (P43406 31-1044, chain 1 of 2): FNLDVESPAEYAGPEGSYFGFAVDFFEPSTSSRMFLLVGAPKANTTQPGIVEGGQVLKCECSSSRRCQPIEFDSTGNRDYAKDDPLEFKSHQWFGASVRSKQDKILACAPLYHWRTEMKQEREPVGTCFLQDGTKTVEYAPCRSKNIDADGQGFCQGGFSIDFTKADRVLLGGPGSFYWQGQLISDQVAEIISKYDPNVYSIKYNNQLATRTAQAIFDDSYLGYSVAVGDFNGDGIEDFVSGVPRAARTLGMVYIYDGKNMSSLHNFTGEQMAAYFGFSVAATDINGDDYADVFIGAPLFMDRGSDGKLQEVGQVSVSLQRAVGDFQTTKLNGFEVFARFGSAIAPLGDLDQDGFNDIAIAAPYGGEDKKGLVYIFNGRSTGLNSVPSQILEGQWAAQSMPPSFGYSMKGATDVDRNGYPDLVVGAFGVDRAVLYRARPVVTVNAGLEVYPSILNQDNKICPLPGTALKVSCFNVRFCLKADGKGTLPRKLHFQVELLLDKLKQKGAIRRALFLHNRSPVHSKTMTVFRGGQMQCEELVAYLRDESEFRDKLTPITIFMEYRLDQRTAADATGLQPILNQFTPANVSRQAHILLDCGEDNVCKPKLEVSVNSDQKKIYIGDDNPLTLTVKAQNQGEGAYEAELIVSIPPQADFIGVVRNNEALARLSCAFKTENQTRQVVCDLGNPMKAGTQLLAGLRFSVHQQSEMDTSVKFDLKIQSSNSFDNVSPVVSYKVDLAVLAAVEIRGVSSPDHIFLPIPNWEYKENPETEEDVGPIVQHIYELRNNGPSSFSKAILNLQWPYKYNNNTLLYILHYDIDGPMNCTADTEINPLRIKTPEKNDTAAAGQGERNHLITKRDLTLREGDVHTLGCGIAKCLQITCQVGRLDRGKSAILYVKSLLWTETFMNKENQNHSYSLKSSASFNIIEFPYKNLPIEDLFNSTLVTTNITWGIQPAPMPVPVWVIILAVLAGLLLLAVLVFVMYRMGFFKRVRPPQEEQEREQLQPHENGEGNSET
T5 sequence (P09055 21-798, chain 2 of 2): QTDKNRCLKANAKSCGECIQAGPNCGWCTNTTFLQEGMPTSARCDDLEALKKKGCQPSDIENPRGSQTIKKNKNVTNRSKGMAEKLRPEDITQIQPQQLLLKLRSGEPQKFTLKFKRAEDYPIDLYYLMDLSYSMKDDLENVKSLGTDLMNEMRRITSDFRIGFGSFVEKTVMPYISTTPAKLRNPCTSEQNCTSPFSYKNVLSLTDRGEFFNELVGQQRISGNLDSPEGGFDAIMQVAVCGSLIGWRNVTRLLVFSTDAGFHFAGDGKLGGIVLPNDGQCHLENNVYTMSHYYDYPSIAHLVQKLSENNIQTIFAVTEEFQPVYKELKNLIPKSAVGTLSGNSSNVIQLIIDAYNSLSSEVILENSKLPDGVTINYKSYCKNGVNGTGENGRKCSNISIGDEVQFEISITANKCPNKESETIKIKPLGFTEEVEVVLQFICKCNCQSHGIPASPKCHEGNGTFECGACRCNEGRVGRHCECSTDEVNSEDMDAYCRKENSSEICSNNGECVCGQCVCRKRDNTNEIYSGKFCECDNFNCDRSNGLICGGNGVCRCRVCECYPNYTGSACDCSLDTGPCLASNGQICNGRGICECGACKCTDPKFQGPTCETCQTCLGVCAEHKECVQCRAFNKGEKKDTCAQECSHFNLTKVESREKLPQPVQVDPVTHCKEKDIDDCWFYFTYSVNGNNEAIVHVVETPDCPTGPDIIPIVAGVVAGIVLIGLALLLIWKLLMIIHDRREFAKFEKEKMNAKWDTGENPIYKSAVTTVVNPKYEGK
The assay is described as follows: flow cytometry on BLO-11 mouse skeletal muscle fibroblasts. How it is done: MRC9 cells were obtained from Sigma (#85020202) and maintained in EMEM (ATCC, #30-2003) supplemented with 10% Fetal Bovine Serum (FBS from Gibco, #16000-077). BLO-11 cells were obtained from ATCC (#CCL-198) and maintained in DMEM (ATCC, #30-2002) supplemented with 10% FBS. Cells were harvested by incubating with cell dissociation buffer (Gibco, #13150-016) at 37° C. for 10 min and then washed with FACS buffer containing CaCl₂) and MgCl₂ (FACS⁺⁺ buffer; PBS+1% BSA+1 mM CaCl₂)+1 mM MgCl₂). All staining and wash steps were performed at 4° C. in FACS⁺⁺ buffer. In a 96 well U bottom plate, 0.75×10⁶ cells per well were plated and then spun down to remove supernatant. Cells were then resuspended in serially diluted primary antibody and incubated for 30 min. After incubation, cells were washed twice and then incubated with α-human IgG Alexa Fluor 647 (Invitrogen, #A21445) secondary antibody for another 30 min. Cells were then washed twice and fixed with 1% PFA diluted in PBS for 30 min, followed by a final wash. Fluorescence activated cell sorting (FACS) analysis was performed using a five-laser BD LSR-II flow cytometer (BD Biosciences, San Jose, Calif., USA), and data were analyzed using FlowJo software v9 (Treestar, Ashland, Oreg., USA) and transferred into analysis and graphic software including GraphPad Prism 7 (La Jolla, Calif., USA).
With B2, the binding result is listed as “binds”.
Same read-out and setting: under B3 stands “binds”.
Same read-out and setting: under B9 stands “binds”.

The target in the next assay is T3, αvβ8 integrin on stably transfected …. The assay can be described thus: flow cytometry on stably transfected cells; weak binding observed but incomplete fit to calculate EC50. How it is done: as §1, §2
With B6, the binding result is listed as “binds”.

The target of the next assay is T6, α4β1 integrin on cells (human, UniProt P13612 34-1032).
T6 construct: whole, on cells; also called α4β1 on Jurkat cells; stably transfected α4β1 cells
The assay is described as follows: Jurkat cell adhesion to VCAM-Ig, confirming the absence of binding to α4β1 cells in Example 3. How it is done:
as §3, with “pH 7.4). Jurkat cells were” for “pH 7.4). Stably transfected human αvβ1 cells were”, “centrifuged at 1500 rpm for” for “centrifuged at 1100 rpm for”, “μl of Jurkat cells labeled” for “μl of human αvβ1 cells labeled”
This includes examples for a pan-αv commercial antibody (L230), a pan-β1 commercial antibody (mAb13), a published α4-specific antibody (natalizumab), and the c8 small molecule compound previously published as αvβ1 specific (Reed N I et al, Sci Transl Med, 7(288): 288ra79 (2015)).
On to B2, for which the binding result is “no binding”.
With B3, the binding result was “no binding”.
Same read-out and setting: for B10 the value was “no binding”; for B9, “no binding”.

In general, EC50 refers to the midpoint of the concentration-response curve. Broadly, the IC50 is the concentration at which inhibition is half-maximal. Low readings indicate inhibition by little substance, high ones a need for much substance.
